Laboratory results published in paper PMC3787751.

B1: NdCld (Nitrospira defluvii) (protein)
chain: ADREKLLTESGVYGTFATFQMDHDWWDLPGESRVISVAEVKGLVEQWSGKILVESYLLRGLSDHADLMFRVHARTLSDTQQFLSAFMGTRLGRHLTSGGLLHGVSKKPTYVAGFPESMKTELQVNGESGSRPYAIVIPIKKDAEWWALDQEARTALMQEHTQAALPYLKTVKRKLYHSTGLDDVDFITYFETERLEDFHNLVRALQQVKEFRHNRRFGHPTLLGTMSPLDEILEKFAQ
B2: NwCld (Nitrobacter winogradskyi Nb-255) (protein)
chain: MTFTVFTGGDSGAWSILSVAPVIGESLMAASHLAIAPSLSLGDTSATTPWQLRGVASHARYVERAEKIALTSVQAGLGRNEATRAALIPIRKSAAWWEMTQDERRAIFEDKSHHIAASLKYLPAIARQLYHCRDIGEPFDFLTWFEYAPEHATMFEDLVGVLRATEEWTYVEREVDIRLARAI

Substrate: [O-][Cl+]O
Experiment: purified protein
Settings: 25 °C, pH 7.0

Protein	Km [µM]	kcat [s⁻¹]
B1	58 ± 9	35 ± 5
B2	90 ± 12	190 ± 14
